The subject of series [1] is FMRP (His-tagged recombinant). The series is described as follows: EMSA competition. Particulars: vs 32P-N19; EMSA or filter binding as in ref 4, with K+ or Na+; buffer, pH and temperature not in the material.
The test system of series [2] is FXR1P Isoe. Description: filter binding competition. Particulars: self-competition, 32P-Sod1; EMSA or filter binding as in ref 4, with K+ or Na+; buffer, pH and temperature not in the material.
Series [3] deals with FMRP (His-tagged recombinant). The series is described as follows: filter binding competition. The note with it: vs 32P-N19; EMSA or filter binding as in ref 4, with K+ or Na+; buffer, pH and temperature not in the material.

The IC50 is the midpoint of a concentration-inhibition curve.

For Sod1 full-length mRNA, in series [1], the binding signal (% competition at 5 nM) was found to be 65. For the same substance, the values for the IC50 in series [2] and in series [3] were 20 nM and 3 nM, respectively.
Consider Sod1-5' region, for which, in series [3], the IC50 is 3 nM.

Values taken from paper PMC2628407.
